This experiment has as its target T1, human CCR8 (human, UniProt P51685 1-355).
T1 construct: On stably transfected HEK293 cells or CHO-K1 cells; also called hCCR8
The experiment is described as follows: competition flow cytometry on hCCR8 HEK293 cells; competitor FLAG3-tagged VHH-69.

Where a chain is given by its changes, count along the chain named. In names and notes the source's numbering stands.

T1 sequence (P51685 whole entry): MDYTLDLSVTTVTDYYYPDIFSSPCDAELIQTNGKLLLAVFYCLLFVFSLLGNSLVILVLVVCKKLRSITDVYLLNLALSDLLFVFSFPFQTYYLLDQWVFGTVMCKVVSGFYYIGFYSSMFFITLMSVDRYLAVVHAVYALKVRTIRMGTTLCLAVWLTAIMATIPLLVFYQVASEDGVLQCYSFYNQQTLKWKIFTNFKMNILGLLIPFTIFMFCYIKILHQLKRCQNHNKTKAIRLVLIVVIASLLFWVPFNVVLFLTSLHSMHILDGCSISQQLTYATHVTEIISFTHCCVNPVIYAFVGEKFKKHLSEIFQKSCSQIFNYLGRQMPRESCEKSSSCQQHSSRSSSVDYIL

B1: VHH-123 (VHH)
VHH: DVQLVESGGGLVQPGGSLRLSCTASGRTFTNYKSNYKMAWFRQAPGKARAFVGRTDWTGSSAIIANSVKGRFTISRDNAKNTVYLQMNSLRPEDTAVYYCAAGTTIGQYTYWGQGTLVTVSS
notes: also called VHH-69(E1D, N55S, D65G); not shown: C-terminal His6 tag (no FLAG3 tag)
For the molecule B1, the 50% inhibitory concentration (IC50) came to 0.71 nM.

B2: VHH-124 (VHH)
VHH: B1 VHH with S60K
notes: also called VHH-69(E1D, N55K, D65G); not shown: C-terminal His6 tag (no FLAG3 tag)
In the case of B2, the IC50 came to 0.25 nM and the “fold more potent competition IC50 against the control VHH-69(E1D)” value was found to be 2 fold.

Values taken from US20240052044A1 (VIB VZW, published 2024).
